In patent US20250243282A1 (TRUEBINDING, published 2025):

Tests used:
[1] = biological target: T1, human Gal3 protein (recombinant human Galectin-3) (human, UniProt P17931 2-250)
T1 construct: also called hGal3; hGAL3

[2] = biological target: T2, Recombinant human Gal3 (rhGal3) (TrueBinding, #QC200361) (human, UniProt P17931 2-250); assay: cell-based or functional assay
[3] = biological target: T2, Recombinant human Gal3 (rhGal3) …; assay: cell-based or functional assay; remark: listed apart in the source
[4] = biological target: T1, human Gal3 protein (recombinant human …); assay: ELISA, hGal3 coated, receptor in solution
[5] = biological target: T1, human Gal3 protein (recombinant human …); assay: ELISA biological activity, long-term stability 5°C, 3 months
[6] = biological target: T1, human Gal3 protein (recombinant human …); assay: ELISA biological activity, long-term stability 5°C, 1 month
[7] = biological target: T1, human Gal3 protein (recombinant human …); assay: ELISA blocking assay (blocked partner not stated), in-use stability bag #2, 1 h
[8] = biological target: T1, human Gal3 protein (recombinant human …); assay: ELISA biological activity, accelerated stability 25°C/60% RH, 0 months
[9] = biological target: T1, human Gal3 protein (recombinant human …); assay: ELISA blocking assay (blocked partner not stated), in-use stability bag #2, 2 h
[10] = biological target: T1, human Gal3 protein (recombinant human …); assay: ELISA blocking assay (blocked partner not stated), in-use stability bag #1, 4 h
[11] = biological target: T1, human Gal3 protein (recombinant human …); assay: BLI binding activity, long-term stability 5°C, 3 months
[12] = biological target: T1, human Gal3 protein (recombinant human …); assay: ELISA blocking assay (blocked partner not stated), in-use stability bag #2, 4 h
[13] = biological target: T1, human Gal3 protein (recombinant human …); assay: ELISA blocking assay (blocked partner not stated), in-use stability bag #2, 0 h
[14] = biological target: T1, human Gal3 protein (recombinant human …); assay: BLI binding activity, long-term stability 5°C, 1 month
[15] = biological target: T1, human Gal3 protein (recombinant human …); assay: ELISA blocking assay (blocked partner not stated), in-use stability bag #1, 1 h
[16] = biological target: T1, human Gal3 protein (recombinant human …); assay: BLI binding activity, long-term stability 5°C, 0 months
[17] = biological target: T1, human Gal3 protein (recombinant human …); assay: method not stated (FIG. 20)
mouse Gal3 = mouse Gal3 (mouse, UniProt P16110 2-264); assay: method not stated (FIG. 20)
mouse Gal3, sequence (P16110 2-264 limits assumed): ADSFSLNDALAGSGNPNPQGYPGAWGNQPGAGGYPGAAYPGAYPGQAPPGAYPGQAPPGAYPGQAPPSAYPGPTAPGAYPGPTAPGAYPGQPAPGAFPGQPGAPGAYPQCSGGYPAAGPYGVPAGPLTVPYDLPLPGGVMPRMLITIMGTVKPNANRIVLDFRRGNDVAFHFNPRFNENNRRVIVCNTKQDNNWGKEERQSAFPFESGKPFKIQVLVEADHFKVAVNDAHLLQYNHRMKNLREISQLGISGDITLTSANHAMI

[18] = biological target: T1, human Gal3 protein (recombinant human …); assay: ELISA biological activity, long-term stability 5°C, 0 months; 5° C., 0 months
[19] = biological target: T2, Recombinant human Gal3 (rhGal3) …; assay: cell-based or functional assay; remark: listed apart in the source
[20] = biological target: T1, human Gal3 protein (recombinant human …); assay: BLI binding activity, accelerated stability 25°C/60% RH, 0 months
[21] = biological target: T1, human Gal3 protein (recombinant human …); assay: ELISA biological activity, accelerated stability 25°C/60% RH, 3 months
[22] = biological target: T1, human Gal3 protein (recombinant human …); assay: ELISA blocking assay (blocked partner not stated), in-use stability bag #1, 0.5 h
[23] = biological target: T1, human Gal3 protein (recombinant human …); assay: ELISA biological activity, accelerated stability 25°C/60% RH, 1 month
[24] = biological target: T1, human Gal3 protein (recombinant human …); assay: ELISA blocking assay (blocked partner not stated), in-use stability bag #1, 0 h; Bag #1, 0 h
[25] = biological target: T1, human Gal3 protein (recombinant human …); assay: BLI binding activity, accelerated stability 25°C/60% RH, 1 month
[26] = biological target: T1, human Gal3 protein (recombinant human …); assay: ELISA blocking assay (blocked partner not stated), in-use stability bag #1, 2 h
[27] = biological target: T1, human Gal3 protein (recombinant human …); assay: ELISA blocking assay (blocked partner not stated), in-use stability bag #2, 0.5 h
[28] = biological target: T1, human Gal3 protein (recombinant human …); assay: BLI binding activity, accelerated stability 25°C/60% RH, 3 months

T1 sequence (P17931 2-250 limits assumed): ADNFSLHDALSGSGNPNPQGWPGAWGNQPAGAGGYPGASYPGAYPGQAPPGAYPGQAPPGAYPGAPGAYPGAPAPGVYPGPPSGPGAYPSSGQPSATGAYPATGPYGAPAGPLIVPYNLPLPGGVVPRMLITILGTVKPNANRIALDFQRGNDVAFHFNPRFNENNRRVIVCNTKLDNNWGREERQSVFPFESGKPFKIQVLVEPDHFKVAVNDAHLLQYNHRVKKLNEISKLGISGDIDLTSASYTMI

B1: mIMT001 (antibody, mouse IgG2a, V domains shown)
VH: QIQLVQSGPELKKPGETVKISCKASGYTFTNYGMNWVKQAPGKGLKWMGWINTNTGEPTYVEEFKGRFAFSLETSASTAYLQINNLKNEDTATYFCAPYDNFFAYWGQGTLVTVSA
VL: DIVITQDELSNPVTSGESVSISCRSSKSLLYKDGKTYLNWFLQRPGQSPQLLIYLMSTHASGVSDRFSGSGSGTDFTLEISRVKAEDVGVYYCQQLVDYPLTFGAGTKLELKR
notes: also called murine IMT1; mIMT1
% blocking [1]: > 95%

B2: 24D12.2H9 (antibody, human IgG4 S228P, kappa, V domains shown)
VH: QVQLKQSGPGLVQPSQSLSITCTVSGFSLTSYGVHWVRQAPGKGLEWLGVIWSGGSTDYNAAFMSRLSISKDNSKSQVFFKMNSLQADDTAIYYCAKSPDGYDVAWFGYWGQGTLVTVSA
VL: DIVMTQSHKFMSTSVGDRVSITCKASQDVRTAVAWYQQKPGQSPKLLIYWASTRHTGVPDRFTGSGSGTDFTLTLSNVQSEDLADYFCQQYSSYPWTFGGGTKLEIKR
% inhibition of CD62L shedding [2]: 73.1% | % blocking [1]: 55% | % inhibition of IL-6 secretion [3]: 22.3% | % inhibition of TNFα secretion [3]: 46.5%

B3: recombinant human CD147, 6xHis-tagged (R&D Systems, 972-EMN) (receptor, not shown: small tags and cut ends)
chain: AAGTVFTTVEDLGSKILLTCSLNDSATEVTGHRWLKGGVVLKEDALPGQKTEFKVDSDDQWGEYSCVFLPEPMGTANIQLHGPPRVKAVKSSEHINEGETAMLVCKSESVPPVTDWAWYKITDSEDKALMNGSESRFFVSSSQGRSELHIENLNMEADPGQYRCNGTSSKGSDQAIITLRVRSHLAAL
notes: also called hCD147; EMMPRIN
binding result [4]: binds

B4: TB006 (antibody, human IgG4 S228P, kappa, V domains shown)
VH: QVQLVQSGAEVKKPGASVKVSCKASGYSFTNYYMHWVRQAPGQRLEWMGWIYPGSGNTNYNEKFQGRVTITADTSASTAYMELSSLRSEDTAVYYCSTAPGGFDVWGQGTTVTVSS
VL: DIVMTQTPLSLSVTPGQPASISCKSSKSLLHSDGITYLYWYLQKPGQSPQLLIYRMSNLASGVPDRFSGSGSGTDFTLKISRVEAEDVGVYYCAQMLEFPLTFGQGTKLEIKR
notes: also called 4A11.H3L1; IMT006a
IC50 [5]: 1.5 µg/mL | IC50 [6]: 1.8 µg/mL | % inhibition of CD62L shedding [2]: 76.1% | IC50 [7]: 1.63 µg/mL | IC50 [8]: 2.5 µg/mL | IC50 [9]: 1.67 µg/mL | IC50 [10]: 1.41 µg/mL | Kd [11]: 3 nM | IC50 [12]: 1.35 µg/mL | IC50 [13]: 1.05 µg/mL | Kd [14]: 2.5 nM | IC50 [15]: 1.43 µg/mL | Kd [16]: 3 nM | Kd [17]: 8.9 nM | Kd (mouse Gal3): 40000 nM | IC50 [18]: 2.5 µg/mL | IC50 of blocking IL-6 secretion by HL60-derived neutrophils (rhGal3 + LPS) [19]: 33.7 nM | IC50 of blocking TNFα secretion by HL60-derived neutrophils (rhGal3 + LPS) [19]: 11.1 nM | Kd [20]: 3 nM | IC50 [21]: 1.5 µg/mL | IC50 [22]: 1.34 µg/mL | IC50 [23]: 1.8 µg/mL | IC50 [24]: 1.01 µg/mL | Kd [25]: 2.5 nM | IC50 [26]: 1.71 µg/mL | IC50 [27]: 1.66 µg/mL | Kd [28]: 3.1 nM

B5: 6H6.2D6 (antibody, human IgG4 S228P, kappa, V domains shown)
VH: QIQLVQSGPELKKPGETVKISCKASGYTFTTYGMSWVKQAPGKGLKWMAWINTYSGVPTYADDFKGRFAFSLETSASTAYLQINNLTNEDTATYFCARGPYAMDYWGQGTSVTVSS
VL: DIQMTQTTSSLSASLGDRVTISCSASQGISNYLNWYQQKPDGTVKLLIYYTSSLHSGVPSRFSGSGSGTDYSLTISNLEPEDIATYYCQQYSELPYTFGSGTKLEIKR
% blocking [1]: > 95%
